Reference: patent US5864028, “Degradation resistant mRNA derivatives linked to TNF-α ribozymes” (Gene Shears Pty. Limited)

Assays:
[1] = molecular target: T1, GAPDH (commercial, rabbit muscle) (Oryctolagus cuniculus, UniProt P46406 P46406:1-333); assay: cleavage enhancement similar to IL-2-Rz2; conditions: tags: commercial; chain copies: 4 (stated homotetramer); hammerhead ribozyme with 5'-3' end duplex
[2] = molecular target: T1, GAPDH (commercial, rabbit muscle); assay: ribozyme cleavage rate enhancement; none with LD; conditions: tags: commercial; chain copies: 4 (stated homotetramer); hammerhead ribozyme with 5'-3' end duplex
Description: Autoradiogram of denaturing gels of multiple turnover reactions in the absence FIG. 32(A) or in the presence of GAPDH FIG. 32(B) as well as in the presence of LD as unspecific protein FIG. 32(C). 5 nM of the ribozyme and 50 nM of […] 15-mer substrate were incubated in a reaction mixture containing 50 mM Tris-HCl pH 7.5 and 5 mM MgCl_2 at 37° C. in the absence or presence of proteins (150 ng/μl) and then processed as described below. FIG. 32(D) Quantification of the data shown in A, B and C by Phospho-Imager. Appropriate time (min) is indicated on the top of each lane. FIG. 32(E) Control experiments. A Phospho-Imager printout is shown following separation of the products by 15% PAGE gel. No cleavage activity was seen upon addition of GAPDH in absence of Mg^++ (lane 4). The cleavage rate of the ribozyme (lane 2) is enhanced by the addition of GAPDH (Lane 3). This cleavage enhancement is shut down by phenol treatment of the GAPDH preparation prior to addition (lane 5). Arrows indicated the cleavage products.
Standard cleavage reactions were carried out at 37° C. in buffer containing 50 mM Tris-HCl, pH 7.5 and 10 mM MgCl_2. Multiple turnover cleavage reactions in the presence or absence of GAPDH were performed with 5 mM […], unless otherwise indicated. Ribozyme and substrate were heated separately at 90° C. for 1 min and cooled at 4° C. […]

[3] = molecular target: GAPDH (37 kDa ribozyme-binding protein purified from PBMN cells) (Homo sapiens, UniProt P04406 P04406:2-335); assay: ribozyme cleavage rate enhancement; 100 ng/ul GAPDH, 2 mM MgCl2, 37 C; conditions: tags: none; Mono Q purified from PBMN cytoplasmic extract; chain copies: 4 (stated homotetramer); label: 32P internal; hammerhead ribozyme
Sequence of GAPDH (37 kDa ribozyme-binding protein purified from PBMN cells) (P04406 2-335, one chain of several): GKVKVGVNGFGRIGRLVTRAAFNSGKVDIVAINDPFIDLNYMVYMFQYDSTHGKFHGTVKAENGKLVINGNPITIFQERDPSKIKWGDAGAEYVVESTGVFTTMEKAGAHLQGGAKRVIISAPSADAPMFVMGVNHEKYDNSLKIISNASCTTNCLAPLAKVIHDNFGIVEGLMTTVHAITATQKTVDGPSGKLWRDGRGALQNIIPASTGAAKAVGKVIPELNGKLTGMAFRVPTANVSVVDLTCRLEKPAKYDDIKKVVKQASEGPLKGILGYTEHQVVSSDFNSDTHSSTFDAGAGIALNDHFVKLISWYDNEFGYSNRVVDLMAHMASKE
Description: FIG. 29(A) Ribozymes (2 nM) and the [γ^32P]-labelled 20-mer target RNA (50 nM) were incubated at 37° C. in the presence or absence of different concentrations of purified protein (Filled rectangle) or lactate dehydrogenase (open rectangle) as unspecific protein in a reaction buffer containing 50 mM Tris-HCl pH 7.5 and 1 mM MgCl_2. […] The radioactivity contained in each 5' end was quantified by Phospho-Imager. […] Appropriate time (min) is indicated on the top of each lane. The radioactivity containing in each 5' end-labelled product was quantified and expressed as percentage of radioactivity present in the substrate FIG. 29(D).
Standard cleavage reactions were carried out at 37° C. in buffer containing 50 mM Tris-HCl, pH 7.5 and 10 mM MgCl_2. Multiple turnover cleavage reactions in the presence or absence of GAPDH were performed with 5 mM […], unless otherwise indicated. Ribozyme and substrate were heated separately at 90° C. for 1 min and cooled at 4° C. After this step both RNAs were mixed in cleavage buffer containing 0.2 U RNasin and then divided into 3 samples. Following addition of GAPDH or lactate dehydrogenase (LD) as an unspecific protein to one of the samples, reactions were initiated by the addition of MgCl_2. At specified times, 10 μl aliquots were removed and the reaction was stopped by the addition of 20 mM EDTA and phenol.

T1 sequence (P46406 whole entry, one chain of several): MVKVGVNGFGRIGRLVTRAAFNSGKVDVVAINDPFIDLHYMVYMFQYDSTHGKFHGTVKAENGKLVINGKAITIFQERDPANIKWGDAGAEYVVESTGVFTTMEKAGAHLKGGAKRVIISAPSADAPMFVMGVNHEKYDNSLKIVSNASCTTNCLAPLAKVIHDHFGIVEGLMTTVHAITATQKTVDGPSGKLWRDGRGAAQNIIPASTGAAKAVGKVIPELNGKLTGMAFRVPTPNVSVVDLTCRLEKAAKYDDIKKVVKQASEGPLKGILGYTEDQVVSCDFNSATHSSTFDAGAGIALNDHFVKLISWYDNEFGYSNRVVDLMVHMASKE

B1: IL-2-Rz3 (ssRNA)
RNA: GACUUAGUGCAAUGCAACUGAUGAGUCCGUGAGGACGAAACAGGAGUUGCGAAUU
[1]
  activity: ~15 fold

## GGUGCAAUGCAACUGAUGAGUCCGUGAGGACGAAACAGGAGUUGCGAAUU (ssRNA) [IL-2-Rz2]
[2]
  activity: 15 fold

B2: TNF-alpha-Rz (ssRNA)
RNA: GUAAGAUGAUCUCUGAUGAGUCCGUGAGGACGAAACUGCCUGGUACUGAAUU
[3]
  activity: 3.8 fold
